According to paper PMC9355583, “Validation of the solution structure of dimerization domain of PRC1” (PLoS ONE, 2022):

Target: the molecule itself
Assay: cross-linking; PEG5 cross-linker (0.1 M-1 M), protein at 20 nM and 50 nM, 50 mM PBS, 50 mM NaCl, pH 7.0, 25 °C, 30 min, read by SDS-PAGE

B1: PRC1 dimerization domain (PRC1-DD, aa: 1-65) (domain or fragment, human, UniProt O43663-1 1-65, looked up)
chain: MRRSEVLAEESIVCLQKALNHLREIWELIGIPEDQRLQRTEVVKKHIKELLDMMIAEEESLKERL
notes: Protein Regulator of Cytokinesis 1 (PRC1), human, isoform 1 (NP_003972; full length 620 residues), N-terminal dimerization domain, residues 1-65; Cloned between NdeI and XhoI of pET-21a with a C-terminal His-tag; no cleavage of the tag is described; For NMR the protein was 15N- or 15N/13C-labelled; also called DD WT; PRC-DD; source: E. coli BL21 (DE3) or Rosseta (DE3), purified (His-Trap HP, …)
stoichiometry N: 2
